Square brackets hold non-standard residues; d marks the D form. Ends that are not written are not given here. pY = N[C@@H](Cc1ccc(OP(=O)(O)O)cc1)C(=O)O
Target: Human α-thrombin (human, UniProt P00734 328-622)
Test: fluorescence polarization competition against fluoresceinated γ′408-427 phosphorylated peptide, 2 µM α-thrombin

binding result: no binding
Binder: E[pY]DSL[pY]PEDDL [γ′ amino-terminal deletion peptide 417-427, phosphotyrosine at 418 and 422]

— patent publication US20040248807A1 (OREGON HEALTH AND SCIENCE UNIVERSITY, published 2004)
